B2: CcmK4 (Synechocystis sp. PCC6803), His4 tag removed by TEV protease (natural protein, UniProt P73407 1-112, looked up)
chain: MSAQSAVGSIETIGFPGILAAADAMVKAGRITIVGYIRAGSARFTLNIRGDVQEVKTAMAAGIDAINRTEGADVKTWVIIPRPHENVVAVLPIDFSPEVEPFREAAEGLNRR
notes: CcmK4, BMC-H carboxysome shell protein of Synechocystis sp; PCC 6803; In native MS it came from His4-K4 co-expressed with K3-FLAG; The untagged K4 homo-hexamer of the exchange experiment was made from a His4-tagged K4 expressed alone; Residues left after TEV cleavage are in S1 List; also called untagged K4; TEV-untagged His4-K4; source: E. coli BL21(DE3), TALON-purified, tag removed with TEV …

Several values for one entry are separate records, joined by “and”; a condition that tells them apart may be missing. Equal entries are not always repeated.

For series [1], the target named is B2. Description: native MS; TALON-purified co-expressed samples, tags removed with TEV protease; 150 mM ammonium acetate pH 8; positive-ion native ESI-MS with collision induced dissociation of selected hexamers. The settings on record: both partners purified.
Series [2] deals with the molecule itself. The series is described as above.
Series [3] deals with the molecule itself. Description: crystal structure; pIsep-FPLC fractions of His4-CcmK4/CcmK3-FLAG at 2.9 mg/mL; 22% PEG 4000, 0.2 M ammonium sulfate, 0.1 M sodium acetate pH 4.6, 12 C; only CcmK4 found in the crystal.
Series [4] deals with T1, CcmK2 (Synechocystis sp. PCC6803), FLAG tag removed by TEV protease (Synechocystis sp. PCC6803, UniProt P72761 1-103).
T1 construct: CcmK2, BMC-H carboxysome shell protein of Synechocystis sp; PCC 6803; monomer masses in native MS indicate loss of the first methionine; Residues left after TEV cleavage are in S1 List; source: E. coli BL21(DE3), co-expressed with K1-His4, co-purified on TALON, tag removed with TEV protease; not shown: FLAG, C-terminal, cleaved
T1 sequence (looked up): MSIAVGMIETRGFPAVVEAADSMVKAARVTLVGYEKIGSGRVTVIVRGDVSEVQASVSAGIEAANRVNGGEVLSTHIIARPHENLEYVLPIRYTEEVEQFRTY
Description: native MS; TALON-purified co-expressed samples, tags removed with TEV protease; 150 mM ammonium acetate pH 8; positive-ion native ESI-MS with collision induced dissociation of selected hexamers. The settings on record: both partners purified.

B1: CcmK3 (Synechocystis sp. PCC6803), FLAG tag removed by TEV protease (natural protein, UniProt P73406 1-103, looked up)
chain: MPQAVGVIQTLGFPSVLAAADAMLKGGRVTLVYYDLAERGNFVVAIRGPVSEVNLSMKMGLAAVNESVMGGEIVSHYIVPNPPENVLAVLPVEYTEKVARFRT
notes: CcmK3, BMC-H carboxysome shell protein of Synechocystis sp; PCC 6803; monomer mass agrees with loss of the first methionine; Residues left after TEV cleavage are in S1 List; also called TEV-untagged K3-FLAG; source: E. coli BL21(DE3), co-expressed with His4-K4, co-purified on TALON, tag removed with TEV protease; not shown: FLAG, C-terminal, cleaved
By stoichiometry N is commonly meant a count of units in the complex or per binding partner. With B1, in series [1], the “stoichiometry N” value is 0.2 K3:K4 in the hexamer (1:5) and 0.5 K3:K4 in the hexamer (2:4). For B2, the “stoichiometry N” value in series [2] stood at 6 subunits.

B3: His4-CcmK4 (Synechocystis sp. PCC6803 CcmK4, N-ter His4 tag) (natural protein, UniProt P73407 1-112, looked up)
chain: MSAQSAVGSIETIGFPGILAAADAMVKAGRITIVGYIRAGSARFTLNIRGDVQEVKTAMAAGIDAINRTEGADVKTWVIIPRPHENVVAVLPIDFSPEVEPFREAAEGLNRR
notes: CcmK4, BMC-H carboxysome shell protein of Synechocystis sp; PCC 6803; The crystallised sample came from His4-K4/K3-FLAG; no tag removal is told for it; also called His4-K4; source: E. coli BL21(DE3), co-expressed (pET26b-based plasmid, two or four cassettes), soluble fraction of the lysate; TALON-purified (pIsep-FPLC for crystallisation); not shown: His4, N-terminal, kept
With B3, the “stoichiometry N” value in series [3] was 6 subunits.

B4: CcmK1 (Synechocystis sp. PCC6803), His4 tag removed by TEV protease (natural protein, UniProt P72760 1-111, looked up)
chain: MSIAVGMIETLGFPAVVEAADSMVKAARVTLVGYEKIGSGRVTVIVRGDVSEVQASVTAGIENIRRVNGGEVLSNHIIARPHENLEYVLPIRYTEAVEQFREIVNPSIIRR
notes: CcmK1, BMC-H carboxysome shell protein of Synechocystis sp; PCC 6803; monomer masses in native MS indicate loss of the first methionine; In native MS it came from K1-His4 co-expressed with K2-FLAG; Residues left after TEV cleavage are in S1 List; also called untagged K1; source: E. coli BL21(DE3), TALON-purified, tag removed with TEV protease; not shown: His4, C-terminal, cleaved
In the case of B4, the “stoichiometry N” value in series [4] is 0.2 K1:K2 in the hexamer (1:5) and 2 K1:K2 in the hexamer (4:2).

For the origin of these results see publication PMC6788708, “Occurrence and stability of hetero-hexamer associations formed by β-carboxysome CcmK shell components” (PLoS ONE, 2019).
